From PMC5729408, “Site-specific bioalkylation of rapamycin by the RapM 16-O-methyltransferase” (Chemical Science, 2015)

B1: RapM (Streptomyces hygroscopicus) (protein)
chain: MIQPDVVTAFTAVRDINLDEPGTPQAETKAATFKSASSSIYDLAASMSAKGQLWNWGVHDSEFVAEIEARLPGFTEYGTDGFSEQLYYLALRDLPKGLESCDGRTVLEVGCGMGEGLNFLSRLVPTARMTGLDLAPKAIASATATLSRGDTLRFVQGDAEELPFEDSSVDVLVNIESSHTYPNLGRFLREAARALRRGGALSHIDVFTRQRLEAMRRITTEIPELKWVSDHDISDQVRAAVRRRMPPDSHLRSTLNKQRMNRLARTLALHSQITVFGGTFADYQPPASVKMLSRLGLVPPMDSLPMETYRHQIAVRV
notes: wild-type rapM in pET28a(+) (NdeI/XhoI), N-terminal His6 tag, E. coli BL21 (DE3), Ni-NTA

Experiments:
hMAT2A = molecular target: T1, hMAT2A (Homo sapiens, UniProt P31153, I322V); assay: HILIC HPLC of AdoMet analogue formation; assay type: biochemical; conditions: ATP 1.5 mM, substrate 1.5 mM, MgCl2 3 mM, pH 7.4, 30 °C
T1 construct: gene MAT2A; pNIC28-Bsa4-hMAT2A, His-tagged, E. coli Rosetta 2, Ni-NTA; rows are the I322V mutant

[1] = substrate: C/C1=C\[C@@H](C)C(=O)C[C@@H]([C@H](C)C[C@@H]2CC[C@@H](O)[C@H](O)C2)OC(=O)[C@@H]2CCCCN2C(=O)C(=O)[C@]2(O)O[C@@H](CC[C@H]2C)C[C@H](O)/C(C)=C/C=C/C=C/[C@@H](C)C[C@@H](C)C(=O)[C@H](O)[C@@H]1O; assay: RP-HPLC methyltransferase assay; assay type: biochemical, Streptomyces hygroscopicus; conditions: AdoMet 500 µM; BC231 2.5–250 µM

T1 sequence (P31153 whole entry I322V): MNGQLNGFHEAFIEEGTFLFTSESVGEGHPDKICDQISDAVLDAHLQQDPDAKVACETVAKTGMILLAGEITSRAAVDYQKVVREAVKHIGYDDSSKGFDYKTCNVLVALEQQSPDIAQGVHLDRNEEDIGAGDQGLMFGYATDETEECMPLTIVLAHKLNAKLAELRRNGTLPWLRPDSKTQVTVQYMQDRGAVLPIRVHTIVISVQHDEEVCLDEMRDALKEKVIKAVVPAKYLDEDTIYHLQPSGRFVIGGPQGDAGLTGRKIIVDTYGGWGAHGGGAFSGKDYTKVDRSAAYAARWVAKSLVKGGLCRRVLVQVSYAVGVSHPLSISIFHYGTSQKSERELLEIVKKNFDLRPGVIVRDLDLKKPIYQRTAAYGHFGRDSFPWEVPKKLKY

Molecule | HILIC HPLC of AdoMet analogue formation (hMAT2A) | Km [1] | kcat [1]
C=CCSCC[C@H](N)C(=O)O [S-allyl-L-homocysteine] | evaluated with L-ethionine and S-allyl-L-homocysteine (Sahc) as substrates |  | 
B1 |  | 48.9 ± 7.1 µM | 1.47 ± 0.072 min^–1
